According to PMC8390433:

Target: Arc (Activity-regulated cytoskeleton-associated protein, Arg3.1) (UniProt Q9WV31)
Experiment: dynamic light scattering, 20°C and 30°C
Conditions: reference: wild type Arc; sites T278

other: DLS large-species diameter (share) at 30°C: stronger; reference 333.00± 68.4 (74%)
Substance: Arc (Activity-regulated cytoskeleton-associated protein, Arg3.1) (from UniProt Q9WV31) T278D
